{"source": "patent US20230059489A1", "about": "(Pfizer, published 2023)", "binders": {"B1": {"name": "P4F6 (IgG format) (antibody, V domains shown)", "VH": "QVQLVQSGAEVKKPGSSVKVSCKASGGTFGSYGISWVRQAPGQGLEWMGGIIPIFGTVTYAQKFQGRVTITADESTRTAYMELSSLRSEDTAVYYCARDSWSGATGASDTWGQGTLVTVSS", "VL": "not shown", "notes": "IgG format, captured by anti-human Fc"}, "B2": {"name": "P4C7 (IgG format) (antibody, V domains shown)", "VH": "QVQLVQSGAEVKKPGSSVKVSCKASGGTFSSYTISWVRQAPGQGLEWMGGIIPAFGIANYAQKFQGRVTITADKSTSTAYMELSSLRSEDTAVYYCAKGGSYSLDYFDIWGQGTLVTVSS", "VL": "EIVLTQSPGTLSLSPGERATLSCRASQYVSASLLAWYQQKPGQAPRLLIYGASTRATGIPDRFSGSGSGTDFTLTISRLEPEDFAVYYCQQYARSSTFGQGTKVEIK", "notes": "as for B1"}, "B3": {"name": "P7F9 (IgG format) (antibody, V domains shown)", "VH": "EVQLLESGGGLVQPGGSLRLSCAASGFTFSSYAMSWVRQAPGKGLEWVSAIGGSGGSTYYADSVKGRFTISRDNSKNTLYLQMNSLRAEDTAMYYCARDYYAFSDPAYGGMDVWGQGTLVTVSS", "VL": "NFMLTQPHSVSESPGKTVTISCTRSSGSIASNYVQWYQQKPGQAPVLVVYDDSDRPSGIPERFSGSNSGNTATLTISRVEAGDEADYYCQVWDSSSDHWVFGGGTKLTVL", "notes": "as for B1"}, "B4": {"name": "P5A3 (IgG format) (antibody, V domains shown)", "VH": "QVQLVQSGAEVKKPGSSVKVSCKASGGTFSSYYIGWVRQAPGQGLEWMGGIIPWFGTANYAQKFQGRVTITADKSTNTAYMELSSLRSEDTAVYYCAADHHDSPSGYTSGGFDVWGQGTLVTVSS", "VL": "QSALTQPASVSGSPGQSITISCTGTSSDVGGYNYVSWYQQHPGKAPKLMIYEVSKRPSGVPDRFSGSKSGNTASLTVSGLQAEDEADYYCSSYAGSNTVVFGGGTKLTVL", "notes": "as for B1"}, "B5": {"name": "P9B5 (IgG format) (antibody, V domains shown)", "VH": "EVQLLESGGGLVQPGGSLRLSCAASGFIFASYAMSWVRQAPGKGLEWVSEISSSGGSTTYADSVKGRFTISRDNSKNTLYLQMNSLRAEDTAVYYCARDRVMAGLGYDPFDYWGQGTLVTVSS", "VL": "not shown", "notes": "as for B1"}, "B6": {"name": "P7H3 (IgG format) (antibody, V domains shown)", "VH": "EVQLLESGGGLVQPGGSLRLSCAASGFTFSSYAMHWVRQAPGKGLEWVSAISGSGGSTYYADSVKGRFTISRDNSKNTLYLQMNSLRAEDTAVYYCARGTRWWWGDAFDHWGQGTLVTVSS", "VL": "QSVLTQPPSVSVAPGKTARITCGGNNIGSKSVHWYQQKPGQAPVLVIYYDSDRPSGIPERFSGSNSGNTATLTISRVEAGDEADYYCQVWDSSTAWVFGGGTKLTVL", "notes": "as for B1"}}, "key": {"human FLT3 (hFLT3)": {"molecular_target": "T1, human FLT3 (hFLT3) (human, UniProt P36888 27-543)", "T1 construct": "also called huFlt3; Fms-Like Tyrosine Kinase 3", "T1 sequence (looked up)": "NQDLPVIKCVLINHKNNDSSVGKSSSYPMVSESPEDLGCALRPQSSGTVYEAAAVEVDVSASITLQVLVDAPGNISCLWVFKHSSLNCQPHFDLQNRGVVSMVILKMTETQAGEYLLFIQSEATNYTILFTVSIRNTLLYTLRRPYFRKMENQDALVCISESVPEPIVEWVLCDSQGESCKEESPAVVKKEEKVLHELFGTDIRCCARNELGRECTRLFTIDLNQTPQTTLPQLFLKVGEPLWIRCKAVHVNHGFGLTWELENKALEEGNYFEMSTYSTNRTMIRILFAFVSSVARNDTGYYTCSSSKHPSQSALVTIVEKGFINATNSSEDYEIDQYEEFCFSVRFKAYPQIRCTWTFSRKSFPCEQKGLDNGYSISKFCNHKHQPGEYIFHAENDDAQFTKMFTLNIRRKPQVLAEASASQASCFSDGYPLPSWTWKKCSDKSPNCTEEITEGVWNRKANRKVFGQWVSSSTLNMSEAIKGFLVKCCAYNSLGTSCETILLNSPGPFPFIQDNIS", "assay": "SPR (Biacore T200), 37 C; IgG captured on anti-human Fc, hFLT3 as analyte", "method": "All experiments were performed on a Biacore T200 surface Plasmon resonance biosensor (GE Lifesciences, Piscataway N.J.).\nThe sensor chip preparation was performed at 25° C. with a running buffer of 10 mM HEPES, 150 mM NaCl, 0.05% (v/v) Tween-20, pH 7.4. An anti-human Fc sensor chip was made by activating all flow cells of a Biacore CM4 sensor chip with a 1:1 (v/v) mixture of 400 mM EDC and 100 mM NHS for 7 minutes, at a flow rate of 10 μL/min. An anti-human Fc reagent (Goat Anti-Human IgG Fc, Southern Biotech Catalog #2081-01) was diluted to 30 μg/mL in 10 mM Sodium Acetate pH 4.5 and injected on all flow cells for 7 minutes at 20 μL/min. All flow cells were blocked with 100 mM ethylenediamine in 150 mM Borate buffer pH 8.5 for 7 minutes at 10 μL/min.\nThe experiments were performed at 37° C. using a running buffer of 10 mM HEPES, 150 mM NaCl, 0.05% (v/v) Tween-20, pH 7.4, 1 mg/mL BSA. FLT3 antibodies were captured from undiluted supernatants onto downstream flow cells (flow cells 2, 3 and 4) at a flow rate of 10 μL/min for 1 minute. Different antibodies were captured on each flow cell. Flow cell 1 was used as a reference surface. Following capture of FLT3 antibodies, analyte (buffer, hFLT3) was injected at 30 μL/min on all flow cells for two minutes. After the analyte injection, dissociation was monitored for 10 minutes followed by regeneration of all flow cells with three 1-minute injections of 75 mM Phosphoric Acid. For each captured FLT3 antibody, the following analyte injections were performed: buffer, 11 nM hFLT3, 33 nM hFLT3, 100 nM hFLT3 and 300 nM hFLT3. Buffer cycles were collected for each captured FLT3 antibody for double-referencing purposes (double-referencing as described in Myszka, D. G. Improving biosensor analysis. J. Mol. Recognit. 12, 279-284 (1999)). The double-referenced sensorgrams were fit globally to a simple 1:1 Langmuir with mass transport binding model."}, "mouse FLT3 (mFlt3)": {"molecular_target": "T2, mouse FLT3 (mFlt3) (mouse (printed as mFlt3), UniProt Q00342 28-544, limits assumed)", "T2 construct": "Construct not described", "T2 sequence (looked up)": "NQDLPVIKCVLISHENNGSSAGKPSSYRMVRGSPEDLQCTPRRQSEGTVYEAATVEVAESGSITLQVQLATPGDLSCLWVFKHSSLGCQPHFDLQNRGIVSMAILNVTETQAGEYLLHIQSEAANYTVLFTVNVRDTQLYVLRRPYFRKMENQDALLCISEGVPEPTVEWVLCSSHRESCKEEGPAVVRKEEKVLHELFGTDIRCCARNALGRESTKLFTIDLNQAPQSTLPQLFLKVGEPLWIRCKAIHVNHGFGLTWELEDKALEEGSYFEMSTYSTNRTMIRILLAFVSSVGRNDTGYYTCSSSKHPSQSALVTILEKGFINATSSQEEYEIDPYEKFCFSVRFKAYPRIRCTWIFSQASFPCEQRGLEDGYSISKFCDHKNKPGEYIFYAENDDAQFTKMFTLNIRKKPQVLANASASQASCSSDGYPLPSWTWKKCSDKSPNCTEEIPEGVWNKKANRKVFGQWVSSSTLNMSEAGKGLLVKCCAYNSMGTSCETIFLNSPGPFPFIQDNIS", "assay": "SPR, Table 6, IgG format, mFlt3 column; set-up for mFlt3 not described"}}}
{"binder": "B1", "values": [{"measurement": "Kd", "setting": "human FLT3 (hFLT3)", "value": 25, "unit": "nM"}, {"measurement": "koff", "setting": "human FLT3 (hFLT3)", "value": 0.0035, "unit": "s⁻¹"}, {"measurement": "kon", "setting": "human FLT3 (hFLT3)", "value": 140000, "unit": "M⁻¹ s⁻¹"}, {"measurement": "t1/2", "setting": "human FLT3 (hFLT3)", "value": 3.3, "unit": "min"}, {"measurement": "Kd", "setting": "mouse FLT3 (mFlt3)", "value": 36.1, "unit": "nM"}]}
{"binder": "B2", "values": [{"measurement": "Kd", "setting": "human FLT3 (hFLT3)", "value": 7.7, "unit": "nM"}, {"measurement": "koff", "setting": "human FLT3 (hFLT3)", "value": 0.0012, "unit": "s⁻¹"}, {"measurement": "kon", "setting": "human FLT3 (hFLT3)", "value": 160000, "unit": "M⁻¹ s⁻¹"}, {"measurement": "t1/2", "setting": "human FLT3 (hFLT3)", "value": 9.3, "unit": "min"}, {"measurement": "Kd", "setting": "mouse FLT3 (mFlt3)", "value": 402, "unit": "nM"}]}
{"binder": "B3", "values": [{"measurement": "Kd", "setting": "human FLT3 (hFLT3)", "value": 12, "unit": "nM"}, {"measurement": "koff", "setting": "human FLT3 (hFLT3)", "value": 0.0013, "unit": "s⁻¹"}, {"measurement": "kon", "setting": "human FLT3 (hFLT3)", "value": 110000, "unit": "M⁻¹ s⁻¹"}, {"measurement": "t1/2", "setting": "human FLT3 (hFLT3)", "value": 8.9, "unit": "min"}, {"measurement": "Kd", "setting": "mouse FLT3 (mFlt3)", "value": 13.8, "unit": "nM"}]}
{"binder": "B4", "values": [{"measurement": "Kd", "setting": "human FLT3 (hFLT3)", "value": 102, "unit": "nM"}, {"measurement": "koff", "setting": "human FLT3 (hFLT3)", "value": 0.01, "unit": "s⁻¹"}, {"measurement": "kon", "setting": "human FLT3 (hFLT3)", "value": 98000, "unit": "M⁻¹ s⁻¹"}, {"measurement": "t1/2", "setting": "human FLT3 (hFLT3)", "value": 1.2, "unit": "min"}, {"measurement": "Kd", "setting": "mouse FLT3 (mFlt3)", "value": 19.3, "unit": "nM"}]}
{"binder": "B5", "values": [{"measurement": "Kd", "setting": "human FLT3 (hFLT3)", "value": 11, "unit": "nM"}, {"measurement": "koff", "setting": "human FLT3 (hFLT3)", "value": 0.00047, "unit": "s⁻¹"}, {"measurement": "kon", "setting": "human FLT3 (hFLT3)", "value": 42000, "unit": "M⁻¹ s⁻¹"}, {"measurement": "t1/2", "setting": "human FLT3 (hFLT3)", "value": 24.4, "unit": "min"}, {"measurement": "Kd", "setting": "mouse FLT3 (mFlt3)", "value": 1.5, "unit": "nM"}]}
{"binder": "B6", "values": [{"measurement": "Kd", "setting": "human FLT3 (hFLT3)", "value": 2, "unit": "nM"}, {"measurement": "koff", "setting": "human FLT3 (hFLT3)", "value": 0.0018, "unit": "s⁻¹"}, {"measurement": "kon", "setting": "human FLT3 (hFLT3)", "value": 990000, "unit": "M⁻¹ s⁻¹"}, {"measurement": "t1/2", "setting": "human FLT3 (hFLT3)", "value": 6.6, "unit": "min"}, {"measurement": "Kd", "setting": "mouse FLT3 (mFlt3)", "value": 0.9, "unit": "nM"}]}
